Assay results from PMC8341956.

Molecular target: nucleosome core particle (recombinant Xenopus laevis histone octamer on 147 bp 601 DNA) (Xenopus laevis)
Test: native gel or EMSA; HMGN1 variants incubated with AlexaFluor488-labelled nucleosome cores (50 nM) at 0.5:1, 1:1 and 2:1 HMGN1 per nucleosome; 10 mM Tris pH 7.5, 25 mM NaCl, 25 mM KCl, 0.2 mM DTT, 4% sucrose, on ice 20-30 min; 5% native PAGE, 0.5x TBE, 4 °C

Row | Substance | stoichiometry N (HMGN1 molecules per nucleosome)
1 | full-length recombinant HMGN1 (HMGN1_1–99, unmodified) (natural protein) | 2
2 | semi-synthetic unmodified HMGN1 (natural protein) | 2
